Assay results: US20190175684A1
Square brackets hold non-standard residues; d marks the D form. Ends that are not written are not given here.

Legend:
[1] = target: annexin A1; test: QCM, peptide fixed on the sensor chip, Anxa1 injected at various doses
[2] = target: annexin A1; test: QCM (quartz crystal microbalance)

Row | Binder | Kd [1] [nM] | Kd [2] [nM]
1 | [dL][dR][dF][dP][dT][dV][dL] [dLRF7 peptide] | 31.2 | –
2 | [dS][dP][dT][dS][dL][dL][dF] [dSPT7 peptide] | 90.3 | –
3 | [dT][dI][dT][dW][dP][dT][dM] [dTIT7 peptide] | – | 45.7

The remaining lines, values ahead:

Row | Kd [1] [nM] | Kd [2] [nM] | Binder
4 | 54.2 | – | [dL][dL][dS][dW][dP][dS][dA] [dLLS7 peptide]
5 | 298 | – | [dM][dP][dT][dL][dT][dF][dR] [dMPT7 peptide]
